Results published in patent US20150299313A1 (Chugai, published 2015).

Columns and labels:
[1] = molecular target: T1, soluble human IL-6 receptor (human, UniProt P08887 20-357); experiment: SPR (Biacore T100), pH 7.4, 37 C
T1 construct: also called hsIL-6R; hIL6R
T1 sequence: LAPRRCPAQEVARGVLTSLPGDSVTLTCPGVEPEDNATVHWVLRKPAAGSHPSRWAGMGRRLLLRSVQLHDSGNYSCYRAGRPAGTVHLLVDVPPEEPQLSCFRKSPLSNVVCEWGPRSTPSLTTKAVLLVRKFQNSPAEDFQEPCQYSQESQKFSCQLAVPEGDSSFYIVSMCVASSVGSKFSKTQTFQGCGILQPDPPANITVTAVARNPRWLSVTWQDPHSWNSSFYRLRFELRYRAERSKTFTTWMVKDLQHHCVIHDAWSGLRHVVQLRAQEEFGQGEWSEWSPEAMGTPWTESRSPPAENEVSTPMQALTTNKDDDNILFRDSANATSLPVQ
Description: (§1) All samples were measured at 37° C.
(§2) Individual parameters were calculated by use of Biacore T100 Evaluation Software (GE Healthcare).

[2] = molecular target: T1, soluble human IL-6 receptor; experiment: SPR (Biacore T100), 3 uM CaCl2, pH 7.4, 37 C (summary table)
Description: as §1
From the sensorgram obtained by measurement, an association constant, ka (1/Ms) and a dissociation constant kd (1/s) as kinetics parameters were computationally obtained. From the values, KD (M) of each antibody to a human IL-6 receptor was calculated. Individual parameters were calculated by use of Biacore T100 Evaluation Software (GE Healthcare).
as §2

[3] = molecular target: T1, soluble human IL-6 receptor; experiment: SPR (Biacore T100), 3 uM CaCl2, pH 7.4, 37 C; roughly calculated by Req=C*Rmax/(KD+C)+RI; 3 µM CaCl2; KD estimated by Expression 1

B1: 6RL#9-IgG1 (antibody, V domains shown)
VH: QVQLVQSGAEVKKPGASVKVSCKASGYTFTSYYMHWVRQAPGQGLEWMGIINPSGGSTSYAQKFQGRVTMTRDTSTSTVYMELSSLRSEDTAVYYCARDDPGGGEYYFDYWGQGTLVTVSS
VL: QSVLTQPPSVSGAPGQRVTISCTGSRSNMGAGYDVHWYQLLPGAAPKLLISHNTHRPSGVPDRFSGSKSGASASLAITGLQAEDEADYYCQSHDSSLSAVVFGGGTKLTVLS
notes: Ca-dependent anti-IL-6R antibody from a human phage library
Ca dependency (KD at 3 uM CaCl2 against KD at 2 mM CaCl2) [1]: ≥ 120 fold
Kd [2]: ≥ 31 µM
Kd [3]: ~31 µM

B2: FH4-IgG1 (antibody, V domains shown)
VH: QVQLVQSGAEVKKPGSSVKVSCKASGGTFSSYAISWVRQAPGQGLEWMGGIIPIFGTANYAQKFQGRVTITADESTSTAYMELSSLRSEDTAVYYCARERDYYDSSGYYDAFDIWGQGTMVTVSS
VL: ETTVTQSPSFLSASVGDRVTITCITTTDIDDDMNWFQQEPGKAPKLLISEGNILRPGVPSRFSSSGYGTDFTLTISKLQPEDFATYYCLQSDNLPFTFGQGTKLEIKR
notes: as for B1
Ca dependency (KD at 3 uM CaCl2 against KD at 2 mM CaCl2) [1]: ≥ 60 fold
Kd [2]: ≥ 34 µM
Kd [3]: ~34 µM
